Experimental data: US12590147 (OBLIQUE THERAPEUTICS, dated 2026)

Legend:
OTV4-OVA [1] = target: T1, OTV4-OVA (human, UniProt P01012 2-386 (chicken entry), conjugated to the carrier via N-terminal Cys); assay: monoclonal phage ELISA, replicate 2
T1 sequence (peptide): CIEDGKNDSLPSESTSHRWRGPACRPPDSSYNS
T1 sequence: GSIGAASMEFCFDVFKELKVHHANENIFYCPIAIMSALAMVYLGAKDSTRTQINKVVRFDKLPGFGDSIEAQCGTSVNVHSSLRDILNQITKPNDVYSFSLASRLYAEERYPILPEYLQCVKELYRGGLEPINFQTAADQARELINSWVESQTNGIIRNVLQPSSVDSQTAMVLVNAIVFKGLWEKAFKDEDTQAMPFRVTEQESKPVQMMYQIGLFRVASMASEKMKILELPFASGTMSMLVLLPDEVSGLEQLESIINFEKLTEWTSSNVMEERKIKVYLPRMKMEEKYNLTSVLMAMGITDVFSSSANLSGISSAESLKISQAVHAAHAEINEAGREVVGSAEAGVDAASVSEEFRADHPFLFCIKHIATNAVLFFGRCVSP
Description: (§1) Single *E. coli* clones were picked randomly selected during the biopanning step and cultured. Supernatants containing phage were prepared and purified. ELISA plates were coated with antigens conjugated to carriers or carriers alone (control), followed by washing, blocking, washing and addition of purified phage. After additional washing, bound phage was detected using anti-phage-HRP antibody.
(§2) This example describes the production of a monoclonal antibody by phage display. The phage library used in this case was a commercially available human naïve LiAb-Fab library (high diversity of 2×10E^10 variants). After 4 rounds of biopanning and ELISA tests, 80 clones were selected and 5 different sequences were identified within this group of phage clones, represented by R4P1-C1, #1, #2, #3, and #4. Each of these phage clones were tested by ELISA for binding to each of the individual peptides OTV3, OTV4, and OTV5 each coupled to either BSA, OVA or KLH (a total of 9 peptide-conjugates). This is an important confirmation step to ensure clone specificity because due to their nature phages can sometimes bind unspecifically. In the ELISA tests (monoclonal phage ELISA tests) one phage Fab clone, R4P1-C1, bound specifically and strongly to all three of the peptides (all nine of the peptide-carrier conjugates), whereas the other phage Fab clones appeared to be non-specific binders (see Table GG below, all phages were tested at the same concentration).

OTV5-KLH [2] = target: T2, OTV5-KLH (human; keyhole limpet, (Pra-) at the N-terminus; C-terminal amide (-CONH2); cyclic; conjugated to the carrier via N-terminal Cys as stated in Example 4 ; chain 1: propargyl group (Pra-) on the N-terminus before Cys1, not …); assay: monoclonal phage ELISA, replicate 2
T2 peptide: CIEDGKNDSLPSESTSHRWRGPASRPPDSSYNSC
Description: as §1, §2

OTV3-BSA [3] = target: T3, OTV3-BSA (human; bovine, conjugated to the carrier via N-terminal Cys); assay: monoclonal phage ELISA, replicate 2
T3 sequence (P02769 25-607 limits assumed): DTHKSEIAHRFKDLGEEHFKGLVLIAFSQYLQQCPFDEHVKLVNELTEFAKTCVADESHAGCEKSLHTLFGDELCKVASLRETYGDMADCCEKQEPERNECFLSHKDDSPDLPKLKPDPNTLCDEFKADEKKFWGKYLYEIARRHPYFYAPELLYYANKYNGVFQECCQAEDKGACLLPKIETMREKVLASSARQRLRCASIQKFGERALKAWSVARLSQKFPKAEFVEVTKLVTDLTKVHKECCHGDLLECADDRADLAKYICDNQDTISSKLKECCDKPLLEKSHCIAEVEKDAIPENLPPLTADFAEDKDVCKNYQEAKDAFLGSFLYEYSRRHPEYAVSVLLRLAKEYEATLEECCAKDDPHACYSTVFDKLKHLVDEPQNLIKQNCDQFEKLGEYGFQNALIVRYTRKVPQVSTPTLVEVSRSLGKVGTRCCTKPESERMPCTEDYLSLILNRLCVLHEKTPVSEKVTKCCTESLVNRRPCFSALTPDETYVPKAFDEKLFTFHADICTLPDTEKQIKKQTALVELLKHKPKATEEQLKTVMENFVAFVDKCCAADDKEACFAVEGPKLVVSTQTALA
Description: as §1, §2

OTV3-OVA [4] = target: T4, OTV3-OVA (human, UniProt P01012 2-386 (chicken entry), conjugated to the carrier via N-terminal Cys); assay: monoclonal phage ELISA, replicate 2
T4 sequence (peptide): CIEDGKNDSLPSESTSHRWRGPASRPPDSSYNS
T4 sequence: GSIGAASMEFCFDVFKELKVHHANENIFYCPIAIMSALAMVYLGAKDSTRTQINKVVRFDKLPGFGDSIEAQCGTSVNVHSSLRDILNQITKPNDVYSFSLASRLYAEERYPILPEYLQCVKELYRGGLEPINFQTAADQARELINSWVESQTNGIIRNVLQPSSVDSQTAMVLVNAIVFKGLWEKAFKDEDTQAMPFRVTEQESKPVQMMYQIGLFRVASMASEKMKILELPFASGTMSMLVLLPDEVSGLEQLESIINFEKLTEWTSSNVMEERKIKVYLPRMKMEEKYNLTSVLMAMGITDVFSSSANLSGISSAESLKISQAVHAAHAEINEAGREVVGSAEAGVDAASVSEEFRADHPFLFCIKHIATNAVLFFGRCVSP
Description: as §1, §2

OTV3-KLH [5] = target: T5, OTV3-KLH (human; keyhole limpet, conjugated to the carrier via N-terminal Cys ; chain 1 pos 1: Cys chemically coupled to the KLH carrier (written C); linear peptide); assay: monoclonal phage ELISA, replicate 2
T5 peptide: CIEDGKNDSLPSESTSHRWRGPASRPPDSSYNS
Description: as §1, §2

OTV5-OVA [6] = target: T6, OTV5-OVA (human, UniProt P01012 2-386 (chicken entry), (Pra-) at the N-terminus; C-terminal amide (-CONH2); cyclic; conjugated to the carrier via N-terminal Cys as stated in Example 4); assay: monoclonal phage ELISA, replicate 2
T6 sequence (peptide): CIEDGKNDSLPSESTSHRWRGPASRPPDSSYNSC
T6 sequence: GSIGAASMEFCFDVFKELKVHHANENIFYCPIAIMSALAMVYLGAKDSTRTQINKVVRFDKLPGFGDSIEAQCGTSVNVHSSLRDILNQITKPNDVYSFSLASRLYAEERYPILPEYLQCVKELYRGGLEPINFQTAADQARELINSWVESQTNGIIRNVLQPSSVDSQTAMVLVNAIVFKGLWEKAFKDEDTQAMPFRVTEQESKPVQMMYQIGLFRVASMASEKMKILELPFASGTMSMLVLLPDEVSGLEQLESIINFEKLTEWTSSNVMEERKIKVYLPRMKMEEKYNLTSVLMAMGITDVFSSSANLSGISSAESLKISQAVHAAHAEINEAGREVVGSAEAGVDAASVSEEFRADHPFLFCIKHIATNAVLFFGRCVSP
Description: as §1, §2

OTV5-BSA [7] = target: T7, OTV5-BSA (human; bovine, (Pra-) at the N-terminus; C-terminal amide (-CONH2); cyclic; conjugated to the carrier via N-terminal Cys as stated in Example 4); assay: monoclonal phage ELISA, replicate 2
T7 sequence (P02769 25-607 limits assumed): as the sequence (P02769 25-607 limits assumed) above
Description: as §1, §2

OTV4-KLH [8] = target: T8, OTV4-KLH (human; keyhole limpet, conjugated to the carrier via N-terminal Cys ; chain 1 pos 1: Cys chemically coupled to the KLH carrier (written C); linear peptide); assay: monoclonal phage ELISA, replicate 2
T8 peptide: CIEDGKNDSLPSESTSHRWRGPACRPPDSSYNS
Description: as §1, §2

OTV4-BSA [9] = target: T9, OTV4-BSA (human; bovine, conjugated to the carrier via N-terminal Cys); assay: monoclonal phage ELISA, replicate 2
T9 sequence (P02769 25-607 limits assumed): as the sequence (P02769 25-607 limits assumed) above
Description: as §1, §2

OTV4-OVA [10] = target: T1, OTV4-OVA; assay: monoclonal phage ELISA, replicate 1
Description: as §1, §2

OTV5-KLH [11] = target: T2, OTV5-KLH; assay: monoclonal phage ELISA, replicate 1
Description: as §1, §2

OTV3-BSA [12] = target: T3, OTV3-BSA; assay: monoclonal phage ELISA, replicate 1
Description: as §1, §2

OTV3-OVA [13] = target: T4, OTV3-OVA; assay: monoclonal phage ELISA, replicate 1
Description: as §1, §2

OTV3-KLH [14] = target: T5, OTV3-KLH; assay: monoclonal phage ELISA, replicate 1
Description: as §1, §2

OTV5-OVA [15] = target: T6, OTV5-OVA; assay: monoclonal phage ELISA, replicate 1
Description: as §1, §2

OTV5-BSA [16] = target: T7, OTV5-BSA; assay: monoclonal phage ELISA, replicate 1
Description: as §1, §2

OTV4-KLH [17] = target: T8, OTV4-KLH; assay: monoclonal phage ELISA, replicate 1
Description: as §1, §2

OTV4-BSA [18] = target: T9, OTV4-BSA; assay: monoclonal phage ELISA, replicate 1
Description: as §1, §2

[19] = target: T10, human TRPV1 (transient receptor potential vanilloid type 1) (human, UniProt Q8NER1 1-839); assay: FACS on CHO TRPV1 cells, purified antibody
T10 construct: ion channel expressed from a tetracycline regulated system (T-REx) in adherent CHO cells, induced with doxycycline; also called hTRPV1
T10 sequence (Q8NER1 whole entry): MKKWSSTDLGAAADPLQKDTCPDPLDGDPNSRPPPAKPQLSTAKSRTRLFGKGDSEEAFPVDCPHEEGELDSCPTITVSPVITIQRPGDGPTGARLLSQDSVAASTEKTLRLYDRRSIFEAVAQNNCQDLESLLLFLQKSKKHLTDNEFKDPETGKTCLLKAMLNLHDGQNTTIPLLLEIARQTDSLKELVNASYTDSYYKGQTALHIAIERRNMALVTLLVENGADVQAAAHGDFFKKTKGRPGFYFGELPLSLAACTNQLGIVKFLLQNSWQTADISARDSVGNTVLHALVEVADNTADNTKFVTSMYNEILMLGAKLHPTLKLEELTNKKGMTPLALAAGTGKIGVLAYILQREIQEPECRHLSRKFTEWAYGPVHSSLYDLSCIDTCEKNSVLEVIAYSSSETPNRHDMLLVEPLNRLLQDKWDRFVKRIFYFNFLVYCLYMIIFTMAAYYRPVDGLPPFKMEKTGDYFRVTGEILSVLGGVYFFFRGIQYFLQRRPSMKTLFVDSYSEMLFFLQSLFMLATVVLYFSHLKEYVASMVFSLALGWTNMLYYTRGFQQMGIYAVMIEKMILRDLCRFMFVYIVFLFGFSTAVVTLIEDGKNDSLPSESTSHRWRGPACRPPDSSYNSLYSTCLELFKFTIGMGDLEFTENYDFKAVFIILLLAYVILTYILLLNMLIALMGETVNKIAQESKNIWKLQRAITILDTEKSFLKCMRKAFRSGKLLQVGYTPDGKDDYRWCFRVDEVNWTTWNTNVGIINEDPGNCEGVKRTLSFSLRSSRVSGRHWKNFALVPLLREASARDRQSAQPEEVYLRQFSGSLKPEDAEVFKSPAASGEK
Description: For monoclonal antibody preparations for FACS analysis, CHO TRPV1 cells, HEK 293 cells or CHO S cells were incubated with 50 μl antibody preparation (serum, hybridoma supernatant or purified monoclonal antibody or control) for 40 min at room temperature, followed by 30 min incubation at room temperature with 100 μl secondary antibody (anti-mouse IgG, conjugated to fluorescent probe). Binding was assessed by measurement of fluorescence signal from cells and reported as mean fluorescence intensity (MFI). CHO TRPV1 cells are adherent Chinese hamster ovary (CHO) cells with a tetracycline regulated expression system (T-REx) of hTRPV1 (human TRPV1) as described elsewhere. Doxycycline was used to induce expression of TRPV1. CHO S cells and HEK 293 cells were used as negative control cells. CHO S cells are a high-density suspension-adapted cell type used as a tool for high level expression of recombinant protein, with little or no basal expression of TRPV1. […]
In the study described in the present example, 16 mouse monoclonal antibodies against human TRPV1, 32C8-1, 33C9-1, 34C11-1, 40B10-1, 41B5-1, 43D6-1, 44E8-1, 46B7-1, 46D9-1, 12C9-1, 12G6-1, 15D8-1, 16F1-1, 17E11-1, 17E9-1, 18E10-1, were produced using the hybridoma technology. Specificity of binding to hTRPV1 was determined using FACS, employing a CHO cell line with inducible hTRPV1 expression. […]

B1: R4P1-C1 (phage Fab clone) (Fab, V domains shown)
VH: QVQLQQSGPGLVKPSQTLSLTCAISGDSVSSNSAAWNWIRQSPSRGLEWLGRTYYRSKWYNDYAVSVKSRITINPDTSKNQFSLQLNSVTPEDTAVYYCARDDYDPVGMYAFDIWGQGTLVTVSS
VL: LPVLTQPPSASGTPGQRVTISCSGSSSNIGSNTVNWYQQLPGTAPKLLIYRNTQRPSGVPDRFSGSKSGTSASLAISGLQSEDEADYYCEAWDDSMRGAAFGGGTQLTVL
notes: also called phage clone R4P1-C1
Binder B1 has an ELISA signal (OTV4-OVA [1]) of 2.78, an ELISA signal (OTV5-KLH [2]) of 2.58 and an ELISA signal (OTV3-BSA [3]) of 2.65. The ELISA signal (OTV3-OVA [4]) was 2.72, the ELISA signal (OTV3-KLH [5]) was 2.94 and the ELISA signal (OTV5-OVA [6]) was 2.49. It also gave an ELISA signal (OTV5-BSA [7]) of 2.56, an ELISA signal (OTV4-KLH [8]) of 2.51 and an ELISA signal (OTV4-BSA [9]) of 2.8. It also gave an ELISA signal (OTV4-OVA [10]) of 2.84, an ELISA signal (OTV5-KLH [11]) of 2.74 and an ELISA signal (OTV3-BSA [12]) of 2.87. It also gave an ELISA signal (OTV3-OVA [13]) of 2.85, an ELISA signal (OTV3-KLH [14]) of 3.13 and an ELISA signal (OTV5-OVA [15]) of 2.61. The ELISA signal (OTV5-BSA [16]) was 2.63, the ELISA signal (OTV4-KLH [17]) was 2.81 and the ELISA signal (OTV4-BSA [18]) was 2.95.

B2: 12C9-1 (antibody, IgG2b, V domains shown)
VH: EVQLQQSGPELVKPGTSVKISCKASGYTFTGYYMNWVKQSHGKSLEWIGDINPNNGGTDYNRKFKGKATLTVDKSSSTAYMEVRSLTSEDSAVYYCAKDFAVWGTGTTVTVSS
VL: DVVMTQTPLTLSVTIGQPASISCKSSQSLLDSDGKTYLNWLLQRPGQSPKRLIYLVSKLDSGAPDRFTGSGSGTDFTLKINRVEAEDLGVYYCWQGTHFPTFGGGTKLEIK
notes: mouse monoclonal, IgG2b/kappa
B2: binds [19].

B3: 12G6-1 (antibody, IgG1, V domains shown)
VH: EVQLVESGGDLVNPGGSLKLSCAASGFTISNYGMSWVRQTPDKRLEWVAIIIRDGGYTYYPDSVKGRFTISRDSAKNTLYLQMSSLKSEDTAMYYCARHEYYFDFWGQGTTLTVSS
VL: DVLMTQTPLSLPVSLGDQASISCRSSQTILHSDGNTYLEWYLQKPGQSPKLLIYKVSNRFSGVPDRFSGSGSGTDFTLKISRVEAEDLGVYYCSQGSHFPPTFGGGTKVEIK
notes: mouse monoclonal, IgG1/kappa
B3: binds [19].
